The values below come from patent US20150337037A1 (MSM PROTEIN TECHNOLOGIES, published 2015).

In general, EC50 refers to the concentration that produces a half-maximal response.

The target in assay [1] is T1, mouse CCR6 (mouse, UniProt O54689 1-367).
T1 construct: whole, on cells; gene derived from a cDNA library; also called CCR6 mouse
T1 sequence (looked up): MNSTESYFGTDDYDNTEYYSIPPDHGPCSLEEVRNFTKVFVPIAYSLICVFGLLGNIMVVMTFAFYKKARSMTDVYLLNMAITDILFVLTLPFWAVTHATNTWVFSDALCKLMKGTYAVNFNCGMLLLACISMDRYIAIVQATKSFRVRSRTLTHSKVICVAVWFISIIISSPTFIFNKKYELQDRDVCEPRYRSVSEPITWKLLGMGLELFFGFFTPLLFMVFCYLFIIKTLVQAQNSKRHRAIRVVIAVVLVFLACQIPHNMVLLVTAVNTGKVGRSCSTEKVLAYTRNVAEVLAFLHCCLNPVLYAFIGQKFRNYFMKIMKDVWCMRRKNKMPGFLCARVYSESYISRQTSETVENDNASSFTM
The experiment in a line: flow cytometry on CHO cells expressing mouse CCR6. The method, then: Cells have been incubated with fully human anti-human CCR6 antibodies in IgG1 format. After washing out residual unbound antibodies the cells were incubated with commercial anti-human Fc antibodies conjugated to the fluorescent dye phycoerythrin (IgG-PE). In more details, the cell staining procedure was: […] cell suspension in 10 μl FACS buffer (1×PBS, 2.0% FBS, 0.2% sodium azide) was mixed with 10 μl of 200 nM the corresponding anti-CCR6 MAB and incubated on ice for 30 min. Washing step—after the incubation 150 μl of FACS buffer was added to the cell sample, the samples were mixed gently by up-down pipetting the cell suspension. Then the samples were centrifuged at 1100 rpm for 5 minutes, and supernatants were removed. Washing step was repeated ones. Then 10 μl of anti-human PE-(Fab)2 form Jackson Immuno Research Lab. #709-116-098 diluted 40 times in FACS buffer were added to the cells and the cells were re-suspended by up-down pipetting. After 20 min. incubation on ice in dark the washing step was repeated twice. The washed cells were mixed with 100 μl of FIX buffer (0.5% Paraformaldehyde solution in PBS). Fixed samples were stored in dark on ice and analyzed by FACS on Guava PCA-96 flow cytometer.

The target in assay [2] is T2, cynomolgus monkey CCR6 (cynomolgus monkey (Macaca Fascicularis)).
T2 construct: whole, on cells; gene derived from a total RNA library; also called CCR6 cyno; cyno CCR6
Nature of the assay: flow cytometry on cells expressing the target, IgG1 titration, anti-human Fc-PE.

The target of assay [3] is T3, human chemokine receptor CCR6 (human, UniProt P51684 1-374).
T3 construct: whole, on cells; gene was synthesized (codon-optimized); a C-terminal tag may be present on the expressed protein; also called CCR6 human; human CCR6
T3 sequence (looked up): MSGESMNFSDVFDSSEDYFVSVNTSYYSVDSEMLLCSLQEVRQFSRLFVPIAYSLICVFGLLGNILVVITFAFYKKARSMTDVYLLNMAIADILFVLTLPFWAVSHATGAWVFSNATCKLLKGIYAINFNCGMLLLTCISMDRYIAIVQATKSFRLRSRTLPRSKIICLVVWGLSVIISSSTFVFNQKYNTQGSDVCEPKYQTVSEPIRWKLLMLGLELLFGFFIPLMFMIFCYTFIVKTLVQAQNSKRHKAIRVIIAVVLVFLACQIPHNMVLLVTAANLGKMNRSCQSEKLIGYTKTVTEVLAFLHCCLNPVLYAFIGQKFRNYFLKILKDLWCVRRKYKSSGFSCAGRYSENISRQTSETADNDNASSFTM
The description is as above.

Assay [4] has as its target T2, cynomolgus monkey CCR6. The experiment in a line: flow cytometry on cells expressing the target, IgG1 titration (repeat of Table 2). (In general: In flow cytometry, cells or beads pass a laser one at a time.)
Assay [5] concerns the target T3, human chemokine receptor CCR6. The description is as above.
Assay [6] has as its target T4, mouse CCR7 (mouse, UniProt P47774 25-378).
T4 construct: whole, on cells; also called CCR7ms
T4 sequence (looked up): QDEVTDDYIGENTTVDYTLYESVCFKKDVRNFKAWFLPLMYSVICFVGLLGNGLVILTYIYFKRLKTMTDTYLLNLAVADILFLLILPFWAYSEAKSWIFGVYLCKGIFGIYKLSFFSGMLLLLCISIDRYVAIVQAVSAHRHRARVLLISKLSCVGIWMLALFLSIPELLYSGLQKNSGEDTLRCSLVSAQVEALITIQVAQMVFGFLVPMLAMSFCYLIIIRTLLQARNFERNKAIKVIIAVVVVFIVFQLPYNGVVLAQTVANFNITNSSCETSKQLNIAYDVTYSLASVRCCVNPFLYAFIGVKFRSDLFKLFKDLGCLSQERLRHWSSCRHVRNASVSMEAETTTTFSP
Nature of the assay: flow cytometry on GPCR-expressing cell panel.

The target of assay [7] is T5, human CXCR6 (human, UniProt O00574 1-342).
T5 construct: whole, on cells
The experiment in a line: flow cytometry on GPCR-expressing cell panel.

In assay [8] the target is T3, human chemokine receptor CCR6. The experiment in a line: cell-based or functional assay.
The target in assay [9] is T1, mouse CCR6. The experiment in a line: flow cytometry on cells expressing the target, IgG1 titration, anti-human Fc-PE.
Assay [10] deals with T3, human chemokine receptor CCR6. The experiment in a line: cell-based or functional assay. This is another data set of the same source.
The target of assay [11] is T1, mouse CCR6. The experiment in a line: flow cytometry on cells expressing the target, IgG1 titration (repeat of Table 2).
Assay [12] concerns the target T2, cynomolgus monkey CCR6. Nature of the assay: flow cytometry on cells expressing the target, antibody titration.
Assay [13] addresses T3, human chemokine receptor CCR6. Described as above.
The target is the same in assay [14]. The experiment in a line: cell-based or functional assay. The source holds these as a separate data set.
Assay [15] has as its target T1, mouse CCR6. Nature of the assay: flow cytometry on cells expressing mouse CCR6.
The target of assay [16] is T3, human chemokine receptor CCR6. The experiment in a line: flow cytometry on R1610 cells expressing human CCR6, IgG1 titration, anti-human Fc-PE.
The target of assay [17] is T6, human CXCR2 (human, UniProt P25025 1-360).
T6 construct: whole, on cells
T6 sequence (looked up): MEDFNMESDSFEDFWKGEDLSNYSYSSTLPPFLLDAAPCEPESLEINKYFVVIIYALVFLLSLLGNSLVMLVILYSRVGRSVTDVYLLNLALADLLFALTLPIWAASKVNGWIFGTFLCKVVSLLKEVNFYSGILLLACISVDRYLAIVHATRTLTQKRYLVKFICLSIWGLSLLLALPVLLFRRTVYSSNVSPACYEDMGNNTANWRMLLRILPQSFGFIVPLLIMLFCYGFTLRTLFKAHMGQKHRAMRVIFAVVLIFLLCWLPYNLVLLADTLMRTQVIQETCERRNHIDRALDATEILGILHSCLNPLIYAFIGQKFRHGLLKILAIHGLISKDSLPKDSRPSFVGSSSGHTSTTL
Nature of the assay: flow cytometry on GPCR-expressing cell panel.

Assay [18] has as its target T1, mouse CCR6. Nature of the assay: flow cytometry on CHO cells expressing mouse CCR6. The source holds these as a separate data set.

Positions count from the first letter of the chain named.

T5 sequence (O00574 whole entry): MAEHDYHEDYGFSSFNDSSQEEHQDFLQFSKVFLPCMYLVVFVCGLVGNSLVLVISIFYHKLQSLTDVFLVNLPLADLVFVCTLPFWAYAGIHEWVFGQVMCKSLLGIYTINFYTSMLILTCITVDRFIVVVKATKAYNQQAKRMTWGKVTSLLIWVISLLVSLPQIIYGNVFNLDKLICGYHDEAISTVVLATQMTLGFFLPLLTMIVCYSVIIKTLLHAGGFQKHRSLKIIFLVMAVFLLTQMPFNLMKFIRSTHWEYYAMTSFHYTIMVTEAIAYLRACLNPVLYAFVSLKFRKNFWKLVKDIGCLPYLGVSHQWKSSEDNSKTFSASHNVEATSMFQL

B1: MSM-R601 IgG1 (antibody, V domains shown)
VH: EVQLLESGGGLVQPGGSLRLSCAASGFTFSSYAMSWVRQAPGKGLEWVSAISGSGGSTYYADSVKGRFTISRDNSKNTLYLQMNSLRAEDTAMYYCARHGYSATRQGLDYWGQGTLVTVSS
VL: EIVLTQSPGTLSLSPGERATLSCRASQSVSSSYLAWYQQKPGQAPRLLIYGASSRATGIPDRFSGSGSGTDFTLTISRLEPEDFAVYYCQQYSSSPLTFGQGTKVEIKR
notes: Fully human IgG1 made in transiently transfected CHO cells; HC AA / LC AA entries are full chains
On to B1, for which, in [1], the binding result was “no binding”. Besides, the EC50 in assay [2] came out at 14.5 nM; in assay [3], 25 nM; in assay [4], 14.5 nM; in assay [5] it was 25 nM.

B2: MSM-R605 IgG1 (antibody)
heavy: not shown
light: EIVLTQSPGTLSLSPGERATLSCRASQSVSSSYLAWYQQKPGQAPRLLIYGASSRATGIPDRFSGSGSGTDFTLTISRLEPEDFAVYYCQQSRATPLTFGQGTKVEIKRTVAAPSVFIFPPSDEQLKSGTASVVCLLNNFYPREAKVQWKVDNALQSGNSQESVTEQDSKDSTYSLSSTLTLSKADYEKHKVYACEVTHQGLSSPVTKSFNRGEC
notes: Fully human IgG1
With B2, the binding result in [6] and in [7] was “binds” in each case. Besides, in assay [8], the “IC50, nM CCL20-Ca-Flux” value is 1.5 nM. Moreover, the concentration giving a half-maximal response (EC50) was determined as 1.8 nM in assay [2]; 1 nM in [3]; 1.6 nM in assay [9]; 1.8 nM in [4]; 1 nM in assay [5]; 1.6 nM in assay [11]. Further, the “Ca-Flux IC50, nM CCR6/CCL20” value in assay [10] came out at 1.5 nM.

B3: MSM-R627/33 (antibody, V domains shown)
VH: EVQLLESGGGLVQPGGSLRLSCAASGFTISSYMAWVRQAPGKGLEWVSSISPSSGSTYYADSVKGRFTISRDNSKNTLYLQMNSLRAEDTAVYYCARSMWSKQMHRYGLDYWGQGTLVTVSS
VL: EIVLTQSPGTLSLSPGERATLSCRASQSVSSSYLAWYQQKPGQAPRLLIYGASSRATDIPDRFSGSGSGTDFTLTISRLEPEDFAVYYCQQSYSDPITFGQGTKVEIK
notes: also called MSM 627 HC/JSJ R633LC
Take B3: the results for the EC50 in assay [12] and in [13] were 2.9 nM and 2.6 nM, respectively. Moreover, the “IC50, nM (Ca-Flux) CCR6/CCL20” value in [14] is more than 500 nM.

B4: MSM-R633 (antibody, V domains shown)
VH: EVQLLESGGGLVQPGGSLRLSCAASGFTFTSSYMAWVRQAPGKGLEWVSSIAPSSGSTYYADSVKGRFTISRDNSKNTLYLQMNSLRAEDTAVYYCARSRWEWYYHSSHGLDYWGQGTLVTVSS
VL: B3 VL
As for B4, the EC50 worked out at 7.5 nM in assay [12] and 7 nM in [13]. Moreover, the binding result in [15] is listed as “no binding”.

B5: MSM-R625 (antibody, human IgG1, kappa, V domains shown)
VH: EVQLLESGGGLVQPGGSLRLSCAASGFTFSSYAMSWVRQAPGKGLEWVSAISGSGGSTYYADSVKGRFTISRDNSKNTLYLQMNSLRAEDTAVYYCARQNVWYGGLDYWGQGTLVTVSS
VL: EIVLTQSPGTLSLSPGERATLSCRASQSVSSSYLAWYQQKPGQAPRLLIYGASSRATGIPDRFSGSGSGTDFTLTISRLEPEDFAVYYCQQYSYAPITFGQGTKVEIKR
As for B5, the EC50 in assay [12] is 2.6 nM; in assay [13], 1.6 nM. Also, the binding result in assay [15] is “no binding”.

B6: MSM-R614 IgG1 (antibody, V domains shown)
VH: EVQLLESGGGLVQPGGSLRLSCPASGFTFTRSAMSWVRQAPGKGLEWVSYINSSGGGTYYADSVKGRFTISRDNSKNTLYLQMNSLRAEDTAVYYCARARFIWGFDYWGQGTLVTVSS
VL: B5 VL with Y92W, S93Y, Y94W, I97V
notes: Fully human IgG1
Consider B6, for which the EC50 is 2.5 nM in assay [16], 3 nM in assay [2], 3 nM in [4] and 2.5 nM in assay [5]. The binding result is on record as “binds” in assay [17] and “no binding” in [18].
